These results are taken from article PMC10533390, “The interface of condensates of the hnRNPA1 low-complexity domain promotes formation of amyloid fibrils” (Nature Chemistry, 2023).

This data set concerns the molecule itself. The data set can be described thus: ThT fluorescence kinetics + AFM + TEM + Raman spectroscopy (amyloid fibril formation); self-association into amyloid fibrils starting from condensates; 30 µM protein in 50 mM Tris pH 7.5, 200 mM NaCl, 2 mM β-mercaptoethanol, 20 µM ThT, 384-well plates; re-scan confocal images after ~70 h.

B1: hnRNPA1-B low-complexity domain (domain or fragment, UniProt P09651 186-372, looked up)
chain: MASASSSQRGRSGSGNFGGGRGGGFGGNDNFGRGGNFSGRGGFGGSRGGGGYGGSGDGYNGFGNDGGYGGGGPGYSGGSRGYGSGGQGYGNQGSGYGGSGSYDSYNNGGGGGFGGGSGSNFGGGGSYNDFGNYNNQSSNFGPMKGGNFGGRSSGPYGGGGQYFAKPRNQGGYGGSSSSSSYGSGRRF
notes: C-terminal low-complexity domain of heterogeneous nuclear ribonucleoprotein A1, splicing variant hnRNPA1-B (52 amino acids more than hnRNPA1-A); 19.8 kDa; also called B-LCD; hnRNPA1–B-LCD; source: E. coli BL21-Gold (DE3), purified (Ni-NTA, SEC on Superdex 75 in 2 M urea)
As for B1, the binding result is reported as “binds”.

B2: hnRNPA1-A low-complexity domain (domain or fragment, UniProt P09651 186-250, looked up)
chain: MASASSSQRGRSGSGNFGGGRGGGFGGNDNFGRGGNFSGRGGFGGSRGGGGYGGSGDGYNGFGNDGSNFGGGGSYNDFGNYNNQSSNFGPMKGGNFGGRSSGPYGGGGQYFAKPRNQGGYGGSSSSSSYGSGRRF
notes: 15.2 kDa; The two stretches joined are the natural splice variant; also called A-LCD; hnRNPA1–A-LCD; source: E. coli BL21-Gold (DE3), purified (Ni-NTA, SEC on Superdex 75 in 8 M urea)
On to B2, for which the binding result was “binds”.
